B1: 6H8: anti-HSP90 monoclonal antibody produced by hybridoma FERM BP-11222; epitope … (antibody)
VH: QVQLQQSGPELVKPGASVRISCKASGYTFTSYYIHWVKQRPGQGLEWIGWIYPGNVNTKYNEKFKGKATLTADKSSSTAYMQLSSLTSEDSAVYFCARYGNYPFAYWGQGTLVTVSAAKTTAPSVYPLAPVCGDTTGSSVTLGCLVKGYF
VL: DVVMTQTPLSLPVSLGDQASISCRSSQSLVHSNGNTYLHWYLQKPGQSPKLLIYKVSNRFSGVPDRFSGSGSGTDFTLKISRVEAEDLGVYFCSQSTHVPPTFGGGTKLEIKRADAAPTVSIFPPSSEQLTSGGASVVCFLNNFYPKDINVKWKIDGS
B2: 6H8-OVA: high molecular weight conjugate of the 6H8 antibody and maleimide-activated OVA (conjugate)
VH: B1 VH
VL: B1 VL
chain: GSIGAASMEFCFDVFKELKVHHANENIFYCPIAIMSALAMVYLGAKDSTRTQINKVVRFDKLPGFGDSIEAQCGTSVNVHSSLRDILNQITKPNDVYSFSLASRLYAEERYPILPEYLQCVKELYRGGLEPINFQTAADQARELINSWVESQTNGIIRNVLQPSSVDSQTAMVLVNAIVFKGLWEKAFKDEDTQAMPFRVTEQESKPVQMMYQIGLFRVASMASEKMKILELPFASGTMSMLVLLPDEVSGLEQLESIINFEKLTEWTSSNVMEERKIKVYLPRMKMEEKYNLTSVLMAMGITDVFSSSANLSGISSAESLKISQAVHAAHAEINEAGREVVGSAEAGVDAASVSEEFRADHPFLFCIKHIATNAVLFFGRCVSP

Key:
[1] = test system: HSP90; test: Western blot of DC2.4 dendritic cell line extract with anti-HSP90 antibodies; format: binding; details: SDS-PAGE
Description: A BALE/c mouse was twice immunized with 50 μg of human recombinant HSP90α (prepared using an Escherichia coli expression vector supplied by Professor Takayuki Nemoto at the Nagasaki University School of Dentistry; see J. Biol. Chem. 272:26179-26187, 1997). The adjuvant used was 50 μl of TiterMax Gold (TiterMax, Ga., USA). Three days after final immunization, splenocytes were taken out from the immunized mouse and fused with P3U1 myeloma cells in a 1:1 ratio by means of polyethylene glycol 4000. The fused cells were seeded to a 96-well plate at 5000 cells/well and cultured in an HAT selection culture broth (an RPMI containing 10% FCS, supplemented with 0.1 mM hypoxanthine, 0.016 mM thymidine, and […] aminopterin) for 10 days. The antibodies against HSP90a present in the supernatants in wells containing proliferated cells were detected by ELISA. The hybridomas secreting the antibodies against HSP90α were re-seeded at 0.2 cells/well and further cultured using an HT selection culture broth (an RPMI containing 10% FCS, supplemented with 0.1 mM hypoxanthine and 0.016 mM thymidine) for 10 days. For the antibodies in the supernatants of proliferated cells, it was confirmed using ELISA and Western blotting that antibodies against HSP90 were secreted. […]

[2] = test system: mouse HSP90α; test: Epitope mapping by ELISA with biotinylated overlapping peptides; format: binding; details: 12-amino-acid overlapping peptides, antibody 1 μg/ml, OD405
Description: Epitope mapping was performed using biotinylated overlapping peptides. The biotinylated overlapping peptides were prepared as described in a publicly known document (J. Immunological Methods 2002; 267:27-35). The epitope mapping was performed using a library of 12-amino-acid-long synthetic peptides each having an overlap of four amino acids.
After an avidin-coated plate was blocked with BSA, the above-described biotinylated overlapping peptides (1.25-3.75 mg/ml) were added. The plate was incubated at room temperature for 2 hours, after which it was washed with PBS/Tween 20 to remove the unreacted biotinylated overlapping peptides. Each anti-HSP90 monoclonal antibody (1 μg/ml) was added, and the plate was incubated at room temperature for 2 hours. The plate was washed with PBS/Tween 20 to remove the unreacted antibody, after which anti-mouse IgG-ALP (BD Pharmingen, used at a 2000-fold dilution) was added, and the plate was incubated at room temperature for 1 hour. The plate was washed with PBS/Tween 20 to remove the unreacted anti-mouse IgG-ALP, after which a pNPP solution (KPL, 1 mg/ml) was added, and the plate was incubated at room temperature for 3 hours to cause color development. After the color development, the plate was subjected to measurement of OD405 nm. […]

[3] = test system: cell surface HSP90 on DC2.4 cells; test: Internalization of cell surface HSP90 by the 6H8 antibody; format: cell-based
Description: The behavior of the 6H8-HSP90 complex after being recognized by the 6H8 antibody was examined as described below. First, DC2.4 cells were incubated in the presence of biotinylated 6H8 (1 μg/ml) on ice for 30 minutes and washed. Next, the cells were incubated at 37° C. with 5% CO2 for 0, 10, 20, 30, or 60 minutes. After cooling on ice, the cells were stained with PE-Cy5-streptavidin and analyzed by FACS. The results are shown in the left panel of FIG. 4B. Shown in the right panel are bar graphs for the MFI of each group.
Furthermore, immunostaining was performed to compare the behavior of HSP90 with the behaviors of the MHC class 1 molecule H-2K^b and the MHC class II molecule I-A^b. First, DC2.4 cells were incubated in the presence of the biotinylated 6H8 antibody and the FITC-labeled anti-H-2K^b antibody or anti-I-A^b antibody (Pharmingen, the antibody was used at a 100-fold dilution) in the same manner as the above. The cells were stained with PE-Cy5-streptavidin, returned to room temperature and incubated for 20 minutes, and then examined using a confocal microscope. […] It was confirmed that cell surface HSP90 was internalized by the 6H8 antibody.

[4] = test system: OT-II CD4+ T cells; test: In vivo division of OT-II CD4+ T cells; set-up: species or system mouse; details: series of doses injected into recipient mice
[5] = test system: specific CTL; test: Specific CTL induction in immunized mice, comparison with IFA+OVA257-264; format: in vivo, mouse; details: immunized twice at 1-week interval, tail vein; tetramer-positive cells in CD8-positive cells
Description: Mice were immunized twice with 6H8-OVA or IFA+OVA at a 1-week interval. For 6H8-OVA, the specified amount of 6H8-OVA was diluted in 200 μl of PBS and administered from the tail vein. For IFA+OVA, an emulsion was prepared so that the specified amount of OVA257-264 peptide would be contained in the 200 μl dose, and subcutaneously administered. The emulsion was prepared by mixing the required amount of the OVA257-264 peptide in PBS in advance, and adding an equal amount of IFA (SIGMA: F5506) thereto.
Seven days after final immunization, the spleen of each recipient mouse was collected and finely loosened using tweezers, and splenocytes were recovered. A pellet of splenocytes was prepared in a 15-ml tube, and 2 ml of an FCS-free complete RPMI containing the OVA257-264 peptide (final concentration 10^−5 M) was added thereto. With the lid of the tube loosened, the tube was allowed to stand in an incubator at 37° C. with 5% CO2 for 1 hour. Subsequently, the culture broth RPMI (containing 10% FCS) was added to adjust the total volume to 20 ml, and 2 ml each was put into a 24-well plate.
After 5 days of cultivation, the cells were recovered and stained using the H-2K^b+OVA257-264-specific tetramer (MBL: TS-5001-1) and FITC-anti-mouse CD8a (eBioscience: 11-0081), and induction of specific CTL was confirmed using FACS Canto. […]

Molecule | detection of HSP90 in Western blot [1] | epitope region mapped (amino acid numbers) [2] | internalization of cell surface HSP90 (confocal microscope) ([3]; DC2.4, 20 minutes at room temperature) | time for the 6H8-HSP90 complex to disappear from the cell surface (enter into cells) ([3]; DC2.4, biotinylated 6H8 1 μg/ml, 37° C.) | promotion of the division of OT-II CD4+ T cells [4] | CTL induction compared with IFA+OVA [5]
B1 | detected HSP90 as a single band | HSP90α713-724 | internalized | about 10 minutes | – | –
B2 | – | – | – | – | required a higher dose | as effective as, or more effective than, IFA+OVA

Reference: US20110280881A1, “NOVEL ANTI-HSP90 MONOCLONAL ANTIBODY” (RIKEN, priority 2010, published 2011)
